This note sets out measurements from the Immune Epitope Database (IEDB).

One test deals with HLA-A*02:01. Briefly: IEDB peptide-MHC binding, purified MHC/competitive/fluorescence; ≥ and ≤ were set here for values at or beyond the usual limits of such assays.
In another test the target is HLA-B*40:01. Briefly: IEDB peptide-MHC binding, purified MHC/competitive/radioactivity; filed as Kd, often an IC50 or EC50 that approximates it; ≥ and ≤ were set here for values at or beyond the usual limits of such assays.
The target of the next test is HLA-B*44:02. Described as above.
Another test has as its target HLA-B*44:03. Described as above.
In the next test the target is HLA-A*01:01. Described as above.
A further test has as its target HLA-A*23:01. Described as above.
Another test deals with HLA-A*24:02. The description is as above.
The target of a further test is HLA-A*26:01. Described as above.
The next test has as its target HLA-A*29:02. The description is as above.
Another test concerns the target HLA-A*30:02. The test is described as above.
Where [1] appears, read: source organism: Dengue virus 4 Philippines/H241/1956.
Setting [2] is: source organism: Zaire ebolavirus.
[3] abbreviates: source organism: Dengue virus 2 Jamaica/1409/1983.
Setting [4] is: source organism: Dengue virus 1 Brazil/97-11/1997.
The mark [5] stands for this setting: source organism: Dengue virus 3 Martinique/1243/1999.
[6] abbreviates: source organism: SARS coronavirus Tor2.
The mark [7] stands for this setting: source organism: Mammarenavirus machupoense.
Where [8] appears, read: source organism: Lassa virus GA391.
[9] abbreviates: source organism: Mammarenavirus juninense.
The mark [10] stands for this setting: source organism: Lassa virus Josiah.

Consider PVILSLPRI, for which the IC50 in the test with HLA-A*02:01 (source organism: Variola virus) turned out to be 1.87 µM.
HTSGPSVMA: the IC50 with HLA-A*02:01 (source organism: Sudan ebolavirus) was ≥ 203 µM.
In the case of LEENMEVEI, the dissociation constant Kd in the test with HLA-B*40:01 (setting [1]) was found to be 0.0826 µM.
DFLLQRWGG: the IC50 with HLA-A*02:01 (setting [2]) came to 16.8 µM.
With AGISYKDREW, the Kd was determined as 0.843 µM with HLA-B*44:02 (setting [1]) and 4.17 µM with HLA-B*44:03 (setting [1]).
As to LETLLLLTL, the figures for the Kd in the test with HLA-B*40:01 (setting [3]), in the test with HLA-B*44:02 (setting [3]) and with HLA-B*44:03 (setting [3]) were 0.00576 µM, 0.609 µM and 1.34 µM, respectively.
IFINKLNGA: the IC50 in the test with HLA-A*02:01 (source organism: Vaccinia virus Copenhagen) amounted to 3.28 µM.
FEKQLGQIML: the Kd with HLA-B*40:01 (setting [4]) stood at 0.144 µM.
Regarding RENLLLGVGL, the Kd stood at 0.00247 µM in the test with HLA-B*40:01 (setting [5]), 0.0214 µM in the test with HLA-B*44:02 (setting [5]) and 0.292 µM with HLA-B*44:03 (setting [5]).
KEVALLRTY: the Kd in the test with HLA-B*44:02 (setting [1]) worked out at 0.00263 µM; with HLA-B*44:03 (setting [1]) it was 0.0636 µM.
In turn, TTFAEGVVA displayed an IC50 in the test with HLA-A*02:01 (setting [2]) of 50.2 µM.
On the same count and under the same terms, under VIPVYQVNN stands ≥ 340 µM.
On to FEIMDLEKRH, for which the Kd in the test with HLA-B*40:01 (setting [3]) was found to be 0.59 µM.
Turning to EERDDTLTI, the Kd with HLA-B*44:03 (setting [4]) is 1.43 µM.
NLEDLIEWA: in the test with HLA-A*02:01 (source organism: Vaccinia virus), the IC50 is ≥ 137 µM.
Take NELNHILLE: the Kd in the test with HLA-B*44:03 (setting [4]) came to 15.3 µM.
In the case of FFFVYENAF, the Kd with HLA-A*01:01 (setting [6]) was 2.67 µM; in the test with HLA-A*23:01 (setting [6]) it was ≥ 24 µM; with HLA-A*24:02 (setting [6]) it was ≥ 60.4 µM; with HLA-A*26:01 (setting [6]) it was 9.24 µM; in the test with HLA-A*29:02 (setting [6]), ≥ 23.9 µM; with HLA-A*30:02 (setting [6]), ≥ 96.8 µM.
Consider AYSKSLKELV, for which the Kd is ≥ 70.4 µM in the test with HLA-A*01:01 (setting [7]); 16.3 µM with HLA-A*23:01 (setting [7]); 2.64 µM with HLA-A*24:02 (setting [7]); ≥ 69.7 µM with HLA-A*26:01 (setting [7]); ≥ 57 µM in the test with HLA-A*29:02 (setting [7]); ≥ 26.7 µM with HLA-A*30:02 (setting [7]).
In the case of TESHNQTFL, the Kd with HLA-B*40:01 (setting [3]) was determined as 0.0163 µM.
Regarding VFRTSTPKVV, the Kd in the test with HLA-A*01:01 (setting [8]) was ≥ 70.4 µM; with HLA-A*23:01 (setting [8]), ≥ 70 µM; with HLA-A*24:02 (setting [8]), ≥ 70.3 µM; with HLA-A*26:01 (setting [8]), ≥ 69.7 µM; with HLA-A*29:02 (setting [8]), ≥ 71.4 µM; with HLA-A*30:02 (setting [8]) it was ≥ 69.7 µM.
The sequence TKIDSMFLM came in with a concentration for half-maximal inhibition (IC50) with HLA-A*02:01 (source organism: Variola virus) of 38 µM.
As to VELPNSLEEL, in the test with HLA-B*40:01 (setting [4]), the Kd is 0.0292 µM.
As to AATEAEKQL, the IC50 with HLA-A*02:01 (setting [2]) is ≥ 436 µM.
With FSSRMYCSFY, the Kd was 0.00272 µM with HLA-A*01:01 (setting [6]); ≥ 42.4 µM with HLA-A*23:01 (setting [6]); ≥ 43.1 µM in the test with HLA-A*24:02 (setting [6]); 0.023 µM with HLA-A*26:01 (setting [6]); 0.0402 µM with HLA-A*29:02 (setting [6]); 0.00215 µM with HLA-A*30:02 (setting [6]).
For TNSVIIMAY, the Kd with HLA-A*01:01 (setting [6]) is ≥ 25.8 µM; with HLA-A*23:01 (setting [6]), ≥ 77.8 µM; with HLA-A*24:02 (setting [6]), ≥ 77.6 µM; with HLA-A*26:01 (setting [6]), 17.3 µM; with HLA-A*29:02 (setting [6]), 0.0845 µM; with HLA-A*30:02 (setting [6]), 2.12 µM.
Take LFQFFVFLV: the Kd in the test with HLA-A*01:01 (setting [9]) is 0.531 µM; with HLA-A*23:01 (setting [9]), 15.7 µM; with HLA-A*24:02 (setting [9]) it was 18.8 µM; in the test with HLA-A*26:01 (setting [9]), ≥ 57.2 µM; with HLA-A*29:02 (setting [9]) it was 0.437 µM; with HLA-A*30:02 (setting [9]), 0.986 µM.
Turning to GEIGAIALDF, the Kd with HLA-B*44:02 (setting [5]) was determined as 0.0136 µM; in the test with HLA-B*44:03 (setting [5]), 0.00892 µM.
Turning to VFNGTSWFI, the equilibrium dissociation constant (Kd) in the test with HLA-A*01:01 (setting [6]) was ≥ 78.1 µM; in the test with HLA-A*23:01 (setting [6]), ≥ 77.8 µM; in the test with HLA-A*24:02 (setting [6]), ≥ 107 µM; with HLA-A*26:01 (setting [6]) it was ≥ 77.9 µM; in the test with HLA-A*29:02 (setting [6]) it was ≥ 45.4 µM; in the test with HLA-A*30:02 (setting [6]), ≥ 93.8 µM.
Take LYNFATCGLV: the Kd was ≥ 31.3 µM with HLA-A*01:01 (setting [10]); 2.35 µM with HLA-A*23:01 (setting [10]); 11.9 µM with HLA-A*24:02 (setting [10]); ≥ 69.7 µM with HLA-A*26:01 (setting [10]); 0.62 µM with HLA-A*29:02 (setting [10]); 0.575 µM with HLA-A*30:02 (setting [10]).
For CEPRSGIDF, in the test with HLA-B*44:03 (setting [1]), the Kd came out at 0.901 µM.

For orientation: IC50 means the concentration that gives 50% inhibition. A lower IC50 goes with greater potency. As usually defined, the Kd is the equilibrium constant for the complex coming apart.
